Results taken from PMC6318328, “Structural insights into trans-histone regulation of H3K4 methylation by unique histone H4 binding of MLL3/4” (Nature Communications, 2019).
One block for each substance: values may come before it.

Columns and labels:
[1] = tested on: recombinant nucleosomes (histone H3K4); experiment: In vitro histone methyltransferase (HMT) assay of MLL3/MLL4 constructs; assay type: biochemical; details: recombinant nucleosomes 0.5 μg, 2.5 μCi [3H]-SAM, 30 °C, 16 h, autoradiography (Fig. 3b, c)
Experimental: Mammalian expression plasmids encoding different fusions of MLL3 PHD and SET domains were subcloned into the pFLAG-CMV2 vector (Sigma-Aldrich, E7033) and were transiently expressed in HEK 293T cells (ATCC® ACS-4500™) by using Lipofectamine 2000 (ThermoFisher Scientific, 11668027) according to manufacturer’s protocol. Two days after transfection, cells were harvested and then lysed by mammalian lysis buffer (20 mM Tris-HCl, 137 mM NaCl, 1.5 mM MgCl2, 1 mM EDTA, 10% glycerol, 1% Triton X-100, 0.2 mM PMSF, 1 μg mL^−1 aprotinin, 2.5 μg mL^−1 leupeptin, and 1 μg mL^−1 pepstatin at pH 8.0). FLAG immunoprecipitation (FLAG IP) was performed in a similar way as described previously. In brief, total cell lysates were incubated with anti-FLAG M2 Affinity Gel (Sigma-Aldrich, A2220) in 4 °C for 5 h and were extensively washed with BC500 (20 mM Tris-HCl, 500 mM KCl, 1.5 mM MgCl2, 0.2 mM EDTA, 10% glycerol, 0.2 mM PMSF at pH 8.0). […]
HMT assay was performed according to a previously described method with minor modifications. […] The signals for HMT activity were detected by autoradiography. The input of the MLL3/4 proteins and nucleosomes were detected by mouse monoclonal anti-FLAG M2 (Sigma-Aldrich, F3165, 1:1000) and rabbit polyclonal anti-H3 antibody (Abcam, ab1791, 1:1000), respectively. […]

MLL4_(ePHD6)1475–1564 = molecular target: T1, MLL4_(ePHD6)1475–1564 (Homo sapiens, UniProt O14686); experiment: ITC binding of histone peptides to MLL4 ePHD6 (1475–1564); parameters: key to ITC titration, Kd / Kd: NB: no detectable binding; details: for Kd / binding to ePHD6 of MLL4 (in words): ITC; for Kd: 20 mM Tris pH 7.5, 150 mM NaCl, 25 °C, protein 50–100 μM in cell, peptide 1–2 mM in syringe, single measurement, error from fitting curve; for ITC titration, Kd: Supplementary Fig. 4 and 7, MLL4_ePHD6, pH 7.5, 25 °C
T1 construct: MLL4_ePHD6, residues 1475–1564, and residues 1495–1564; GST (N, cleaved yes); His (N, cleaved yes); made in house; host or cells: E. coli BL21 (DE3) Codon plus RIL
Description: (§1) The DNA fragments of MLL3 and MLL4 PHD domains (MLL3_ePHD6, residues 1055–1144 and residues 1075–1144; MLL3_PHD6, residues 1085–1144; MLL3_PHD5, residues 1009–1055; MLL3_PHD5-6, residues 1008–1144; MLL3_ePHD3, residues 436–525; MLL4_ePHD6, residues 1475–1564, and residues 1495–1564; MLL4_PHD6 residues 1505–1564 and MLL4_PHD5 residues 1429–1475) were subcloned into a modified pET28GST-LIC vector by T4 ligase-independent method (Clontech, 638920) to generate N-terminal GST, His-tagged fusion protein. The recombinant protein was overexpressed in E coli BL21 (DE3) Codon plus RIL (Stratagene) at 15 °C by induction with 0.25 mM IPTG at an OD600 of 0.8 and purified by affinity chromatography on Ni-nitrilotriacetate resin (Qiagen, 30250) followed by thrombin protease treatment to remove the tag. The protein was further purified by HiTrap Q HP column (GE Healthcare, 17115401) by using buffers with 20 mM Tris, pH 8.0, 1 mM DTT, 50 mM NaCl (low salt buffer) or 1 M NaCl (high salt buffer), and Superdex75 gel-filtration column (GE Healthcare, 28989333) by using a buffer containing 20 mM Tris, pH 7.5, 150 mM NaCl, 50 μM ZnCl2, and 1 mM DTT. For crystallization experiments, purified protein was concentrated to 5 mg mL^−1 in the same buffer as gel-filtration by using Amicon Ultra-15 Centrifugal Filter Units (Millipore Corporation, UFC901024).
(§2) For the ITC measurement, the concentrated proteins were diluted into 20 mM Tris, pH 7.5, 150 mM NaCl; the lyophilized peptides (Peptide 2.0 Inc.) were dissolved in the same buffer, and the pH value was adjusted by adding NaOH. Peptides concentrations were estimated from the mass. […] The protein with a concentration of 50–100 μM was placed in the cell chamber, and the peptides with a concentration of 1–2 mM in syringe was injected in 25 (19 for iTC-200) successive injections with a spacing of 180 s (150 s for iTC-200) and a reference power of 13 μcal s^−1 (6 μcal s^−1 for iTC-200). Control experiments were performed under identical conditions to determine the heat signals that arise from injection of the peptides into the buffer.

MLL3_(ePHD6)1055–1144 = molecular target: T2, MLL3_(ePHD6)1055–1144 (Homo sapiens, UniProt Q8NEZ4); experiment: ITC binding of histone peptides to MLL3 ePHD6 (1055–1144); parameters: key to ITC titration, Kd / Kd: NB: no detectable binding; details: for Kd / binding to ePHD6 of MLL3 (in words): ITC; for Kd: 20 mM Tris pH 7.5, 150 mM NaCl, 25 °C, protein 50–100 μM in cell, peptide 1–2 mM in syringe, single measurement, error from fitting curve; for ITC titration, Kd: Supplementary Fig. 4 and 7, MLL3_ePHD6, pH 7.5, 25 °C
T2 construct: MLL3_ePHD6, residues 1055–1144 and residues 1075–1144; GST (N, cleaved yes); His (N, cleaved yes); made in house; host or cells: E. coli BL21 (DE3) Codon plus RIL
T2 sequence (Q8NEZ4 1055-1144): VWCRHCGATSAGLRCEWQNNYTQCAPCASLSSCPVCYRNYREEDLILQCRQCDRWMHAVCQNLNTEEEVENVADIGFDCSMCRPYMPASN
Description: as §1, §2

[2] = tested on: fourth (PHD4), fifth (PHD5), and sixth (PHD6) PHD domains of MLL4; details: peptide pull-down; histone H4 fragment containing the first 23 amino acids; ref [29]; cited from earlier work
Description: (§3) Both MLL3 and MLL4 are multi-domain proteins, containing not only the catalytic SET domain but also a few other domains, including two clusters of PHD domains (Fig. 1a). […] The interaction between histone H4_1–23 and PHD6 do ...

PHD6 domain of MLL4 = details: ITC; ref [29]; cited from earlier work
Description: as §3

[3] = Gel filtration, oligomeric state in solution; assay type: physicochemical; details: Superdex200 10/300 GL, 20 mM Tris pH 7.5, 150 mM NaCl, 50 μM ZnCl2, 1 mM DTT
Experimental: Supplementary Fig. 3 Superimposition of gel-filtration curves of PHD6 and ePHD6 domains of MLL3 and MLL4. Gel filtration chromatography of MLL3 ePHD6 (red), PHD6 (pink), MLL4 ePHD6 (brown), PHD6 (green) and protein molecular weight standards (blue, Bio-Rad). Samples were loaded to the Superdex200 10/300 GL (GE Healthcare) column in the buffer containing 20 mM Tris, pH 7.5, 150 mM NaCl, 50 μM ZnCl2,and1mMDTT. […]

T1 sequence (O14686 1475-1564): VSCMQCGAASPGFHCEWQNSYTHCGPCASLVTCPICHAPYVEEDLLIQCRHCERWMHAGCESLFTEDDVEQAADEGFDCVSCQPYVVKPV

Kd (MLL4_(ePHD6)1475–1564): NB
Kd (MLL3_(ePHD6)1055–1144): NB
Substance: H3_1–20: histone H3 peptide, residues 1–20

Kd (MLL4_(ePHD6)1475–1564): NB
Kd (MLL3_(ePHD6)1055–1144): NB
Substance: H4_1–12: histone H4 peptide covering the first 12 residues
binding to ePHD6 of MLL4 (in words) (MLL4_(ePHD6)1475–1564): neither MLL3 nor MLL4 displayed detectable binding
binding to ePHD6 of MLL3 (in words) (MLL3_(ePHD6)1055–1144): neither MLL3 nor MLL4 displayed detectable binding

Kd (MLL4_(ePHD6)1475–1564): NB
Kd (MLL3_(ePHD6)1055–1144): NB
Substance: H4_1–12R3me2a: histone H4 peptide covering the first 12 residues, asymmetrically methylated (H4R3me2a)

ITC titration, Kd (MLL4_(ePHD6)1475–1564): NB
ITC titration, Kd (MLL3_(ePHD6)1055–1144): NB
Substance: H41–24H18A: histone H4-derived mutant peptide

ITC titration, Kd (MLL4_(ePHD6)1475–1564): NB
ITC titration, Kd (MLL3_(ePHD6)1055–1144): NB
Substance: H411–21H18A: histone H4-derived mutant peptide (GKGGAKRARKV; UniProt P62805 12-22, looked up, variant H18A)

binding to ePHD6 of MLL4 (in words) (MLL4_(ePHD6)1475–1564): weakened the binding significantly
ITC titration, Kd (MLL4_(ePHD6)1475–1564): Weak binding
binding to ePHD6 of MLL3 (in words) (MLL3_(ePHD6)1055–1144): weakened the binding significantly
ITC titration, Kd (MLL3_(ePHD6)1055–1144): Weak binding
Substance: H411–21K16A: histone H4-derived mutant peptide (GKGGAARHRKV; UniProt P62805 12-22, looked up, variant K16A)

ITC titration, Kd (MLL4_(ePHD6)1475–1564): NB
ITC titration, Kd (MLL3_(ePHD6)1055–1144): NB
Substance: H411–21R17A: histone H4-derived mutant peptide (GKGGAKAHRKV; UniProt P62805 12-22, looked up, variant R17A)

binding to ePHD6 of MLL4 (in words) (MLL4_(ePHD6)1475–1564): weakened the binding significantly
ITC titration, Kd (MLL4_(ePHD6)1475–1564): Weak binding
binding to ePHD6 of MLL3 (in words) (MLL3_(ePHD6)1055–1144): weakened the binding significantly
ITC titration, Kd (MLL3_(ePHD6)1055–1144): Weak binding
Substance: H411–21R19A: histone H4-derived mutant peptide (GKGGAKRHAKV; UniProt P62805 12-22, looked up, variant R19A)

Continued, substance first:

Substance: 1M: W1109A single point mutation of MLL3
nucleosomal methyltransferase activity [1]: reduced the enzyme activity

Substance: 2M: W1109A/E1120A double point mutation of MLL3
nucleosomal methyltransferase activity [1]: reduced the enzyme activity

Substance: H4R3me0: histone H4 fragment containing the first 23 amino acids, unmethylated
recognition by PHD4, PHD5 and PHD6 of MLL4 [2]: able to recognize

Substance: H4R3me2a: histone H4 fragment containing the first 23 amino acids, asymmetrically dimethylated on histone H4R3
recognition by PHD4, PHD5 and PHD6 of MLL4 [2]: able to recognize

Substance: H4_1–23: histone H4 fragment containing the first 23 amino acids
interaction with PHD6 domain (PHD6 domain of MLL4): confirmed

Substance: MLL3 PHD6: PHD6 domain of MLL3 (SSCPVCYRNYREEDLILQCRQCDRWMHAVCQNLNTEEEVENVADIGFDCSMCRPYMPASN; left off: GST, N-terminal, cleaved | His tag, N-terminal, cleaved)
oligomeric state in solution [3]: monomer in solution

Substance: MLL4 PHD6: PHD6 domain of MLL4 (VTCPICHAPYVEEDLLIQCRHCERWMHAGCESLFTEDDVEQAADEGFDCVSCQPYVVKPV; left off: GST, N-terminal, cleaved | His tag, N-terminal, cleaved)
oligomeric state in solution [3]: dimer in solution
